{"source": "the RNAGym collection of RNA variant scans (doi:10.1021/acssynbio.7b00057)", "parents": {"B1": {"name": "Pistol ribozyme (parent)", "chain": "GGGUCGUUGUUCCAUAAUCGCGUGGAUAUGGCACGCAAGUUUCUACCGGGCACCGUAAAUGUCCGACUGGAGCCGUUCGGGCGGCUAUAAACAGACCUCAGGCCCGAAGCGUGGCGGCACCUGCCGCCGGUGGUAAAAAAGAUCGGAAGAGCACACGUCU"}}}
{"variants_of": "B1", "assay": "aptazyme ON/OFF ratio, guanine; higher = stronger switching; co-transcriptional cleavage with and without guanine"}
{"variant": "GGGUCGAGGAAACAUAAUCGCGUGGAUAUGGCACGCAAGUUUCUACCGGGCACCGUAAAUGUCCGACUGGAGCCGUUCGGGCGGCUAUAAACAGACCUCAGGCCCGAAGCGUGGCGGCACCUGCCGCCGGUGGUAAAAAAGAUCGGAAGAGCACACGUCU", "note": "[U7A U8G U10A U11A C12A]", "aptazyme ON/OFF ratio": 1.47}
{"variant": "GGGUCGAGGAUCGAUAAUCGCGUGGAUAUGGCACGCAAGUUUCUACCGGGCACCGUAAAUGUCCGACUGGAGCCGUUCGGGCGGCUAUAAACAGACCUCAGGCCCGAAGCGUGGCGGCACCUGCCGCCGGUGGUAAAAAAGAUCGGAAGAGCACACGUCU", "note": "[U7A U8G U10A C13G]", "aptazyme ON/OFF ratio": 1.26}
{"variant": "GGGUCGAGGAUCUAUAAUCGCGUGGAUAUGGCACGCAAGUUUCUACCGGGCACCGUAAAUGUCCGACUGGAGCCGUUCGGGCGGCUAUAAACAGACCUCAGGCCCGAAGCGUGGCGGCACCUGCCGCCGGUGGUAAAAAAGAUCGGAAGAGCACACGUCU", "note": "[U7A U8G U10A C13U]", "aptazyme ON/OFF ratio": 1.12}
{"variant": "GGGUCGAGGAUCAAUAAUCGCGUGGAUAUGGCACGCAAGUUUCUACCGGGCACCGUAAAUGUCCGACUGGAGCCGUUCGGGCGGCUAUAAACAGACCUCAGGCCCGAAGCGUGGCGGCACCUGCCGCCGGUGGUAAAAAAGAUCGGAAGAGCACACGUCU", "note": "[U7A U8G U10A C13A]", "aptazyme ON/OFF ratio": 1.09}
{"variant": "GGGUCGAGUUGGUAUAAUCGCGUGGAUAUGGCACGCAAGUUUCUACCGGGCACCGUAAAUGUCCGACUGGAGCCGUUCGGGCGGCUAUAAACAGACCUCAGGCCCGAAGCGUGGCGGCACCUGCCGCCGGUGGUAAAAAAGAUCGGAAGAGCACACGUCU", "note": "[U7A U8G G9U U11G C12G C13U]", "aptazyme ON/OFF ratio": 1.22}
{"variant": "GGGUCGAGUUGGAAUAAUCGCGUGGAUAUGGCACGCAAGUUUCUACCGGGCACCGUAAAUGUCCGACUGGAGCCGUUCGGGCGGCUAUAAACAGACCUCAGGCCCGAAGCGUGGCGGCACCUGCCGCCGGUGGUAAAAAAGAUCGGAAGAGCACACGUCU", "note": "[U7A U8G G9U U11G C12G C13A]", "aptazyme ON/OFF ratio": 1.22}
{"variant": "GGGUCGAGUUGGGAUAAUCGCGUGGAUAUGGCACGCAAGUUUCUACCGGGCACCGUAAAUGUCCGACUGGAGCCGUUCGGGCGGCUAUAAACAGACCUCAGGCCCGAAGCGUGGCGGCACCUGCCGCCGGUGGUAAAAAAGAUCGGAAGAGCACACGUCU", "note": "[U7A U8G G9U U11G C12G C13G]", "aptazyme ON/OFF ratio": 1.19}
{"variant": "GGGUCGAGUUGCUAUAAUCGCGUGGAUAUGGCACGCAAGUUUCUACCGGGCACCGUAAAUGUCCGACUGGAGCCGUUCGGGCGGCUAUAAACAGACCUCAGGCCCGAAGCGUGGCGGCACCUGCCGCCGGUGGUAAAAAAGAUCGGAAGAGCACACGUCU", "note": "[U7A U8G G9U U11G C13U]", "aptazyme ON/OFF ratio": 1.45}
{"variant": "GGGUCGAGUUGCAAUAAUCGCGUGGAUAUGGCACGCAAGUUUCUACCGGGCACCGUAAAUGUCCGACUGGAGCCGUUCGGGCGGCUAUAAACAGACCUCAGGCCCGAAGCGUGGCGGCACCUGCCGCCGGUGGUAAAAAAGAUCGGAAGAGCACACGUCU", "note": "[U7A U8G G9U U11G C13A]", "aptazyme ON/OFF ratio": 1.28}
{"variant": "GGGUCGAGUUGCGAUAAUCGCGUGGAUAUGGCACGCAAGUUUCUACCGGGCACCGUAAAUGUCCGACUGGAGCCGUUCGGGCGGCUAUAAACAGACCUCAGGCCCGAAGCGUGGCGGCACCUGCCGCCGGUGGUAAAAAAGAUCGGAAGAGCACACGUCU", "note": "[U7A U8G G9U U11G C13G]", "aptazyme ON/OFF ratio": 1.4}
{"variant": "GGGUCGAGGAUCCAUAAUCGCGUGGAUAUGGCACGCAAGUUUCUACCGGGCACCGUAAAUGUCCGACUGGAGCCGUUCGGGCGGCUAUAAACAGACCUCAGGCCCGAAGCGUGGCGGCACCUGCCGCCGGUGGUAAAAAAGAUCGGAAGAGCACACGUCU", "note": "[U7A U8G U10A]", "aptazyme ON/OFF ratio": 2.44}
{"variant": "GGGUCGAGUUGAUAUAAUCGCGUGGAUAUGGCACGCAAGUUUCUACCGGGCACCGUAAAUGUCCGACUGGAGCCGUUCGGGCGGCUAUAAACAGACCUCAGGCCCGAAGCGUGGCGGCACCUGCCGCCGGUGGUAAAAAAGAUCGGAAGAGCACACGUCU", "note": "[U7A U8G G9U U11G C12A C13U]", "aptazyme ON/OFF ratio": 1.2}
{"variant": "GGGUCGAGUUGAAAUAAUCGCGUGGAUAUGGCACGCAAGUUUCUACCGGGCACCGUAAAUGUCCGACUGGAGCCGUUCGGGCGGCUAUAAACAGACCUCAGGCCCGAAGCGUGGCGGCACCUGCCGCCGGUGGUAAAAAAGAUCGGAAGAGCACACGUCU", "note": "[U7A U8G G9U U11G C12A C13A]", "aptazyme ON/OFF ratio": 1.26}
{"variant": "GGGUCGAGUUGAGAUAAUCGCGUGGAUAUGGCACGCAAGUUUCUACCGGGCACCGUAAAUGUCCGACUGGAGCCGUUCGGGCGGCUAUAAACAGACCUCAGGCCCGAAGCGUGGCGGCACCUGCCGCCGGUGGUAAAAAAGAUCGGAAGAGCACACGUCU", "note": "[U7A U8G G9U U11G C12A C13G]", "aptazyme ON/OFF ratio": 1.27}
{"variant": "GGGUCGAGGAUGCAUAAUCGCGUGGAUAUGGCACGCAAGUUUCUACCGGGCACCGUAAAUGUCCGACUGGAGCCGUUCGGGCGGCUAUAAACAGACCUCAGGCCCGAAGCGUGGCGGCACCUGCCGCCGGUGGUAAAAAAGAUCGGAAGAGCACACGUCU", "note": "[U7A U8G U10A C12G]", "aptazyme ON/OFF ratio": 1.22}
{"variant": "GGGUCGAGGAUUCAUAAUCGCGUGGAUAUGGCACGCAAGUUUCUACCGGGCACCGUAAAUGUCCGACUGGAGCCGUUCGGGCGGCUAUAAACAGACCUCAGGCCCGAAGCGUGGCGGCACCUGCCGCCGGUGGUAAAAAAGAUCGGAAGAGCACACGUCU", "note": "[U7A U8G U10A C12U]", "aptazyme ON/OFF ratio": 1.17}
{"variant": "GGGUCGAGGAUACAUAAUCGCGUGGAUAUGGCACGCAAGUUUCUACCGGGCACCGUAAAUGUCCGACUGGAGCCGUUCGGGCGGCUAUAAACAGACCUCAGGCCCGAAGCGUGGCGGCACCUGCCGCCGGUGGUAAAAAAGAUCGGAAGAGCACACGUCU", "note": "[U7A U8G U10A C12A]", "aptazyme ON/OFF ratio": 1.23}
{"variant": "GGGUCGAGGAAAGAUAAUCGCGUGGAUAUGGCACGCAAGUUUCUACCGGGCACCGUAAAUGUCCGACUGGAGCCGUUCGGGCGGCUAUAAACAGACCUCAGGCCCGAAGCGUGGCGGCACCUGCCGCCGGUGGUAAAAAAGAUCGGAAGAGCACACGUCU", "note": "[U7A U8G U10A U11A C12A C13G]", "aptazyme ON/OFF ratio": 1.38}
